Measurements published in paper PMC12407084.

Biological target: Taxol-stabilized microtubules polymerized from bovine brain tubulin, Q6B856
Experiment: fluorescence microscopy of microtubule decoration by GFP-tagged protein
Details: chain shown with the change; 100 nM GFP-tagged Ndc80c Bonsai protein; rhodamine-labeled taxol-stabilized microtubules; parent: est. 12000; read off a plot

Sequence of Taxol-stabilized microtubules polymerized from bovine brain tubulin, Q6B856 (chain, as listed by the source, chain 1 of 2): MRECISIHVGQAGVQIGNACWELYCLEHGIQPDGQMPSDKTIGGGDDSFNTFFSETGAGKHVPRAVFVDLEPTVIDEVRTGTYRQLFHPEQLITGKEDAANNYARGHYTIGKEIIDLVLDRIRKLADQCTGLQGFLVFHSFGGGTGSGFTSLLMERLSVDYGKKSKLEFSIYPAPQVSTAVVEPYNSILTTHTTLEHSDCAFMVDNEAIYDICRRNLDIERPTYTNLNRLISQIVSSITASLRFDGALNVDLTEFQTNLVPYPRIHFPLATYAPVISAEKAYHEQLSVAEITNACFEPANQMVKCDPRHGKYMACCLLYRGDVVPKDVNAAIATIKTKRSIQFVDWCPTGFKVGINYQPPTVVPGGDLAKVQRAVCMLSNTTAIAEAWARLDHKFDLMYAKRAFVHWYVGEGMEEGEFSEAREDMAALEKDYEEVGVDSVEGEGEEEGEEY
Sequence of Taxol-stabilized microtubules polymerized from bovine brain tubulin, Q6B856 (Q6B856 whole entry, chain 2 of 2): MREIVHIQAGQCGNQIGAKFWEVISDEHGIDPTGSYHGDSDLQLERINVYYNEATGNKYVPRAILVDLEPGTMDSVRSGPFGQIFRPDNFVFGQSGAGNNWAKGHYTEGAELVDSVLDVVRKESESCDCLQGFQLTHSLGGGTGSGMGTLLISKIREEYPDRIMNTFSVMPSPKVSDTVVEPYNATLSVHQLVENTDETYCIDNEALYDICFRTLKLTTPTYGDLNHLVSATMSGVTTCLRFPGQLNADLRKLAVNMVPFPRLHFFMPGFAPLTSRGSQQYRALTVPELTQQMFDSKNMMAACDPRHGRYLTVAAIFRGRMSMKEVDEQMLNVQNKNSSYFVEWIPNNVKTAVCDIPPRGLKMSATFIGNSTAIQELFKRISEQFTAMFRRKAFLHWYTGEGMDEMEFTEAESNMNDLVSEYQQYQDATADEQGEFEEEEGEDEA

Row | response | Binder
1 | 160 a.u. | Human Ndc80c Bonsai Ndc80-GFP (WT) Nuf2:K33D; Nuf2:K41D; Nuf2:K115D (protein) chain 1: MKRSSVSSGGAGRLSMQELRSQDVNKQGLYTPQTKEKPTFGKLSINKPTSERKVSLFGKRTSGHGSRNSQLGIFSSSEKIKDPRPLNDKAFIQQCIRQLCEFLTENGYAHNVSMKSLQAPSVKDFLKIFTFLYGFLCPSYELPDTKFEEEVPRIFKDLGYPFALSKSSMYTVGAPHTWPHIVAALVWLIDCIKIHTAMKESSPLFDDGQPWGEETEDGIMHNKLFLDYTIKCYESFMSGADSFDEMNAELQSKLKDLFNVDAFKLESLEAKNRALNEQIARLEQERSTANKANAERLKRLQKSADLYKDRLGLEIRKIYGEKLQFIFTNIDPKNPESPFMFSLHLNEARDYEVSDSAPHLEGLAEFQENVRKTNNFSAFLANVRKAFTATVYN chain 2: METLSFPRYNVAEIVIHIRNKILTGADGKNLTDNDLYPNPDPEVLHMIYMRALQIVYGIRLEHFYMMPVNSEVMYPHLMEGFLPFSNLVTHLDSFLPICRVNDFETADILCPKADRTSRFLSGIINFIHFREACRETYMEFLWQYKSSADKMQQLNAAHQEALMKLERLEKEVDEDTTVTIPSAVYVAQLYHQVSKIEWDYECEPGMVKGIHHGPSVAQPIHLDSTQLSRKFISDYLWSLVDTEW
2 | 400 a.u. | Human Ndc80c Bonsai Ndc80-GFP (WT) Hec1:K166D (protein) chain 1: MKRSSVSSGGAGRLSMQELRSQDVNKQGLYTPQTKEKPTFGKLSINKPTSERKVSLFGKRTSGHGSRNSQLGIFSSSEKIKDPRPLNDKAFIQQCIRQLCEFLTENGYAHNVSMKSLQAPSVKDFLKIFTFLYGFLCPSYELPDTKFEEEVPRIFKDLGYPFALSDSSMYTVGAPHTWPHIVAALVWLIDCIKIHTAMKESSPLFDDGQPWGEETEDGIMHNKLFLDYTIKCYESFMSGADSFDEMNAELQSKLKDLFNVDAFKLESLEAKNRALNEQIARLEQERSTANKANAERLKRLQKSADLYKDRLGLEIRKIYGEKLQFIFTNIDPKNPESPFMFSLHLNEARDYEVSDSAPHLEGLAEFQENVRKTNNFSAFLANVRKAFTATVYN chain 2: METLSFPRYNVAEIVIHIRNKILTGADGKNLTKNDLYPNPKPEVLHMIYMRALQIVYGIRLEHFYMMPVNSEVMYPHLMEGFLPFSNLVTHLDSFLPICRVNDFETADILCPKAKRTSRFLSGIINFIHFREACRETYMEFLWQYKSSADKMQQLNAAHQEALMKLERLEKEVDEDTTVTIPSAVYVAQLYHQVSKIEWDYECEPGMVKGIHHGPSVAQPIHLDSTQLSRKFISDYLWSLVDTEW
